Laboratory results published in PMC9427764.

Experiments:
[1] = Azi photo-cross-linking, immunoblot; conditions: glycan lost; control: untreated PD-L1-V76Azi cells
[2] = Azi photo-cross-linking in HEK293T, anti-Flag blot; conditions: glycan lost; control: PD-L1-Azi without NQ mutations

| Substance | oligomerisation [1] | oligomerisation [2] |
| --- | --- | --- |
| PD-L1: 5 µM tunicamycin, 24 h | decreases |  |
| PD-L1: 4NQ |  | decreases |
